Measurements taken from US7981423B2, “Rage fusion proteins” (Transtech Pharma, Inc., priority 2004, dated 2011).

Legend:
amphoterin (Ampho) = biological target: T1, amphoterin (Ampho) (Homo sapiens, UniProt P09429); assay: In vitro ligand binding ELISA, immobilized amphoterin; settings: various dilutions of fusion protein; FIG. 7
T1 sequence (P09429 1-215): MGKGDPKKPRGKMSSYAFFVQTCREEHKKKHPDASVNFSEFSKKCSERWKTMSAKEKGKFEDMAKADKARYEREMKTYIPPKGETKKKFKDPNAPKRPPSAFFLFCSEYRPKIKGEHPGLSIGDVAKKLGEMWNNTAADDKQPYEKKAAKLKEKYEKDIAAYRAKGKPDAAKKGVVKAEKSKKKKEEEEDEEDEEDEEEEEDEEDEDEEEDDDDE
Description: (§1) For example, the RAGE fusion protein may be used in a binding assay to identify potential RAGE ligands. In one example embodiment of such a binding assay, a known RAGE ligand may coated onto a solid substrate (e.g., Maxisorb plates) at a concentration of about 5 micrograms per well, where each well contains a total volume of about 100 microliters (μL). The plates may be incubated at 4° C. overnight to allow the ligand to absorb. Alternatively, shorter incubation periods at higher temperature (e.g., room temperature) may be used. […] The fusion protein bound to the immobilized ligand may be detected in a variety of ways. […] The bound complex may be detected by adding the alkaline phosphatase substrate, para-nitrophenylphosphate (PNPP), and measuring conversion of PNPP to para-nitrophenol (PNP) as an increase in absorbance at 405 nm. […] Binding was detected by the addition of an immunodetection complex containing a monoclonal mouse anti-human IgG1 diluted 1:11,000 to a final assay concentration (FAC) of 21 ng/100 μL, a biotinylated goat anti-mouse IgG diluted 1:500, to a FAC of […], and an avidin-linked alkaline phosphatase. […] Binding of the complex to the immobilized fusion protein was quantified by measuring conversion of PNPP to para-nitrophenol (PNP) which was-measured spectrophotornetrically at 405 nm. […]

amyloid-beta (Abeta) = biological target: T2, amyloid-beta (Abeta) (Homo sapiens, UniProt P05067); assay: In vitro ligand binding ELISA, immobilized amyloid-beta; settings: various dilutions of fusion protein; FIG. 7
T2 construct: Amyloid Beta (1-40) from Biosource; purchased Biosource
Description: as §1

T2 sequence (P05067 672-711 limits assumed): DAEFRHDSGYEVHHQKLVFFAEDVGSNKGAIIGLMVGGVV

B1: TTP-4000: four domain RAGE fusion protein (SEQ ID NO: 32): human RAGE amino acids 1-251 linked to CH2 and CH3 domains of human IgG (protein)
chain: MAAGTAVGAWALVLSLWGAVVGAQNITARIGEPLVLKCKGAPKKPPQRLEWKLNTGRTEAWKVLSPQGGGPWDSVARVLPNGSLFLPAVGIQDEGIFRCQAMNRNGKETKSNYRVRVYQIPGKPEIVDSASELTAGVPNKVGTCVSEGSYPAGTLSWHLDGKPLVPNEKGVSVKEQTRRHPETGLFTLQSELMVTPARGGDPRPTFSCSFSPGLPRHRALRTAPIQPRVWEPVPLEEVQLVVEPEGGAVAPPSVFLFPPKPKDTLMISRTPEVTCVVVDVSHEDPEVKFNWYVDGVEVHNAKTKPREEQYNSTYRVVSVLTVLHQDWLNGKEYKCKVSNKALPAPIEKTISKAKGQPREPQVYTLPPSRDELTKNQVSLTCLVKGFYPSDIAVEWESNGQPENNYKTTPPVLDSDGSFFLYSKLTVDKSRWQQGNVFSCSVMHEALHNHYTQKSLSLSPGK
For B1, the “binding to immobilized amphoterin (absorbance at 405 nm)” value (amphoterin (Ampho)) was “specifically interact” and the “binding to immobilized amyloid-beta (absorbance at 405 nm)” value (amyloid-beta (Abeta)) was “specifically interact”.
